Changes are numbered by the printed parent chain.
Tests used:
[1] = target: T1, FOS;JUN (Homo sapiens?;Homo sapiens?, UniProt P01100;P05412 1-380;1-331, |); test: EMSA; 75 nM each; unlabeled N1 also competes; 20 mM HEPES (pH not stated), 4 mM MgCl2, 20 mM KCl, 5 mM DTT, 1 mM EDTA, 100 ug/ml BSA, 4% glycerol, poly(dI-dC), 30 min room temperature; native gel 1X TBE; conditions: protein: commercial;commercial; tags: ;; copies: 1;1; label: IRDye-700 as probe; blunt
[2] = target: T2, NRF2;MAFG (Homo sapiens;Homo sapiens?, UniProt Q16236;O15525 1-605;1-162, |); test: EMSA; 75 nM NRF2, 37.5 nM MAFG; unlabeled N1 also competes; 20 mM HEPES (pH not stated), 4 mM MgCl2, 20 mM KCl, 5 mM DTT, 1 mM EDTA, 100 ug/ml BSA, 4% glycerol, poly(dI-dC), 30 min room temperature; native gel 1X TBE; conditions: protein: recombinant;commercial; tags: His, Flag3 (plasmid pPROHEX-HC-Flag3-NRF2);; copies: 1;1; label: IRDye-700 as probe; blunt
[3] = target: T3, NRF1;MAFG (Homo sapiens;Homo sapiens?, UniProt Q14494;O15525 1-772;1-162, |); test: EMSA; TNT NRF1 2 ul/20 ul, 37.5 nM MAFG; unlabeled N1 also competes; 20 mM HEPES (pH not stated), 4 mM MgCl2, 20 mM KCl, 5 mM DTT, 1 mM EDTA, 100 ug/ml BSA, 4% glycerol, poly(dI-dC), 30 min room temperature; native gel 1X TBE; conditions: protein: ivt;commercial; tags: His (plasmid pPB-N-His-NRF1, abm PV028854);; copies: 1;1; label: IRDye-700 as probe; blunt
[4] = target: T1, FOS;JUN; test: competition EMSA; unlabeled vs labeled N1; 20 mM HEPES (pH not stated), 4 mM MgCl2, 20 mM KCl, 5 mM DTT, 1 mM EDTA, 100 ug/ml BSA, 4% glycerol, poly(dI-dC), 30 min room temperature; native gel 1X TBE; conditions: protein: commercial;commercial; tags: ;; copies: 1;1; blunt
[5] = target: T3, NRF1;MAFG; test: as above; conditions: protein: ivt;commercial; tags: His (plasmid pPB-N-His-NRF1, abm PV028854);; copies: 1;1; blunt
[6] = target: T2, NRF2;MAFG; test: competition EMSA; excess unlabeled vs labeled N1; 20 mM HEPES (pH not stated), 4 mM MgCl2, 20 mM KCl, 5 mM DTT, 1 mM EDTA, 100 ug/ml BSA, 4% glycerol, poly(dI-dC), 30 min room temperature; native gel 1X TBE; conditions: protein: recombinant;commercial; tags: His, Flag3 (plasmid pPROHEX-HC-Flag3-NRF2);; copies: 1;1; blunt
[7] = target: T3, NRF1;MAFG; test: competition EMSA; unlabeled vs labeled N1; legend once says NRF2 for these lanes (apparent typo); 20 mM HEPES (pH not stated), 4 mM MgCl2, 20 mM KCl, 5 mM DTT, 1 mM EDTA, 100 ug/ml BSA, 4% glycerol, poly(dI-dC), 30 min room temperature; native gel 1X TBE; conditions: protein: ivt;commercial; tags: His (plasmid pPB-N-His-NRF1, abm PV028854);; copies: 1;1; blunt

T1 sequence (P01100 whole entry, chain 1 of 2): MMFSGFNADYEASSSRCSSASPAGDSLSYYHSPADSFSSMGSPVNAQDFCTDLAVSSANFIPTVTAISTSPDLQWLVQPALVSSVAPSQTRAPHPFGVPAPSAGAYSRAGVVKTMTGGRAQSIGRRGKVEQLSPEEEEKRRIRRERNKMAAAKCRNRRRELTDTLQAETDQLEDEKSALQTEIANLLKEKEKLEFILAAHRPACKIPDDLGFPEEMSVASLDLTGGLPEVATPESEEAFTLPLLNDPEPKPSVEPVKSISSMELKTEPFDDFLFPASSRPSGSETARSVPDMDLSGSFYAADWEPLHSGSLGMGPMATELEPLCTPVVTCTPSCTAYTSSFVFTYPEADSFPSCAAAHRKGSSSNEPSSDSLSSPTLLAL
T1 sequence (P05412 whole entry, chain 2 of 2): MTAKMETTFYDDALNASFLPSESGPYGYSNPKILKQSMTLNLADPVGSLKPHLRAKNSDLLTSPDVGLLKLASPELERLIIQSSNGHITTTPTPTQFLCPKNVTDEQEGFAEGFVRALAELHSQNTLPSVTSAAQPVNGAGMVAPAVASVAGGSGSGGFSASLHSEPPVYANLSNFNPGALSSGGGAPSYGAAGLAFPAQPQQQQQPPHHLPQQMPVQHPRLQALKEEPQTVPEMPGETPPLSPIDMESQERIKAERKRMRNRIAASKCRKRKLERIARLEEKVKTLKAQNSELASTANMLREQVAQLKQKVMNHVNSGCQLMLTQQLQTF

B1: NQO1 ARE WT (NQO1WT) (dsDNA)
DNA 1: AATCCGCAGTCACAGTGACTCAGCAGAATCTGAGCCTAG
DNA 2: CTAGGCTCAGATTCTGCTGAGTCACTGTGACTGCGGATT
B1: binds [1]; binds [2]; binds [3].

B2: MS4A6A ARE rs667897A (dsDNA)
DNA 1: CTGCGCTCCAAACCCGCTGTGTCATACCATACCGGATGT
DNA 2: ACATCCGGTATGGTATGACACAGCGGGTTTGGAGCGCAG
B2: binds [4]; binds [5]; binds [6].

B3: MS4A6A rs667897G (dsDNA)
DNA 1: B2 DNA 1 with A24G
DNA 2: B2 DNA 2 with T16C
B3: no binding [4]; no binding [6].

B4: NQO1 ARE mutant (NQO1mut) (dsDNA)
DNA 1: AATCCGCAGTCACAGACTCCTACGAGAATCTGAGCCTAG
DNA 2: CTAGGCTCAGATTCTCGTAGGAGTCTGTGACTGCGGATT
B4: no binding [4]; no binding [7].

Reference: article PMC5705802, “A hypermorphic antioxidant response element is associated with increased MS4A6A expression and Alzheimer's disease”
